We go through 1 substance from article PMC2834417.

For the experiment, the target named is Wild type Cav1.2 channel with EGFP fused to its C-terminus (rabbit) (UniProt P15381). In words: FRET or BRET. (In general: BRET reads energy transfer from a luciferase to a nearby fluorophore.)

Values joined by “and” are separate entries in the source; they are usually repeats but may differ in a detail not shown here. Identical values can stand only once.

Sequence of UniProt P15381 (P15381 whole entry, the tested form may be a part): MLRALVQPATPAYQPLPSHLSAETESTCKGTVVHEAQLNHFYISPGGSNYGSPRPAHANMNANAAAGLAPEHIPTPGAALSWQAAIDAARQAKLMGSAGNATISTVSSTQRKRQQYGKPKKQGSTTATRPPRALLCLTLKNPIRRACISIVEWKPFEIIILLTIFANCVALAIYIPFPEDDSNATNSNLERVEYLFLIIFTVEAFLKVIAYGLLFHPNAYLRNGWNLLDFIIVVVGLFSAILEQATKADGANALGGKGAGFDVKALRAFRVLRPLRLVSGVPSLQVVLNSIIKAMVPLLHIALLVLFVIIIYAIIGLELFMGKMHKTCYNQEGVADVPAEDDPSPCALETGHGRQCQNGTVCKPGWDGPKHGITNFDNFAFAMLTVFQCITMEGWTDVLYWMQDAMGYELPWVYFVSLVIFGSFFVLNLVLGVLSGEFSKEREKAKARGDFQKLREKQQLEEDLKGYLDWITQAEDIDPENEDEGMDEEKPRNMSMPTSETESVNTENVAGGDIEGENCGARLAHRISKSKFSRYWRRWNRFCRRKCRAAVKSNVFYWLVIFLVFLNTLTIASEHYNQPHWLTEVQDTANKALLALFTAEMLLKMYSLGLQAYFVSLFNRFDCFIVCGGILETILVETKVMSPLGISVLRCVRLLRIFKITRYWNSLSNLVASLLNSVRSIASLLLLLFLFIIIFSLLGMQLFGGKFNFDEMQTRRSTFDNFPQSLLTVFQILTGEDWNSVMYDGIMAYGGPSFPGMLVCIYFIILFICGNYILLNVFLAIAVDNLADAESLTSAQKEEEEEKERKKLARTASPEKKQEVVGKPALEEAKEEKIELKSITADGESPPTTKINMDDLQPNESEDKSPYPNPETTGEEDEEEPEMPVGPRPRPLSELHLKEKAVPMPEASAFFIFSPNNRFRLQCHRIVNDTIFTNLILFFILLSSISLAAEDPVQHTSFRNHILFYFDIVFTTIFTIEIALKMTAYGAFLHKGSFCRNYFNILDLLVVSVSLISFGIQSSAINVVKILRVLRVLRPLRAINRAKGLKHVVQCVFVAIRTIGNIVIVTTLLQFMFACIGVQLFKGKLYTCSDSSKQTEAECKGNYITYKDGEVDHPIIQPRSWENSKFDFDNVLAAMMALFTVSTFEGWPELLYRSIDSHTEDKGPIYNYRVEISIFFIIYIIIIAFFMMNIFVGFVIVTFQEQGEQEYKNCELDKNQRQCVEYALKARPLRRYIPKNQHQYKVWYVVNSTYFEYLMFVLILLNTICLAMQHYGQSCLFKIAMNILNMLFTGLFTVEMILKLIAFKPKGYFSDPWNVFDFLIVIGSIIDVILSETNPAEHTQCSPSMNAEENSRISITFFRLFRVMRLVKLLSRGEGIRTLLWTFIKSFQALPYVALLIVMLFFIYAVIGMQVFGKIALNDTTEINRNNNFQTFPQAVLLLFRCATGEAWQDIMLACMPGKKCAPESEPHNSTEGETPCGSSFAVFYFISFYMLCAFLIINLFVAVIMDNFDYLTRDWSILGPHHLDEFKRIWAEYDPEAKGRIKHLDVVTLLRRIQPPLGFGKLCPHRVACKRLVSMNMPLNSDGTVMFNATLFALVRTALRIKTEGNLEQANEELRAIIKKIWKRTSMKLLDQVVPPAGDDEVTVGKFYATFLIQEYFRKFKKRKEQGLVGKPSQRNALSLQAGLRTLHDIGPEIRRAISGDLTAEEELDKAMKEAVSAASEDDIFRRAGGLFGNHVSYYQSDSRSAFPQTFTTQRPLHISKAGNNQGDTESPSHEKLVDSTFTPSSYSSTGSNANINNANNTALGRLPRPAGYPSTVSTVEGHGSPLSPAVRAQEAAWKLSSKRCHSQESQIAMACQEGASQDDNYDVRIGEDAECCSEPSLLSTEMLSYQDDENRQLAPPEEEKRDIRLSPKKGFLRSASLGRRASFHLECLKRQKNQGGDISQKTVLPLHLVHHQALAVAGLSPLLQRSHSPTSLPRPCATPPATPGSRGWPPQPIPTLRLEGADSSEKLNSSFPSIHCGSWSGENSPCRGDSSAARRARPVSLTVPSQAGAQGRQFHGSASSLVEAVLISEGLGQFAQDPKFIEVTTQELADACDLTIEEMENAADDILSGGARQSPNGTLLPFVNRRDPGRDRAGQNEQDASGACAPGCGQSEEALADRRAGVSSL

Take “Calmodulin fused with tag-RFP (from UniProt P0DP23 1-149) (natural protein)”: the FRET was 0.32 and 0.21 and 0.33.
